According to patent publication US20160017053A1 (IMMUNOGEN, published 2016):
Numbering of substitutions follows the chain as printed.

Columns and labels:
[1] = biological target: human EGFR (epidermal growth factor receptor) (human) (UniProt P00533); assay: flow cytometry, binding curve of the biotinylated ligand on MDA-MB468 cells
[2] = biological target: T1, human EGFR (epidermal growth factor receptor) (human, UniProt P00533 25-1210); assay: cell-based or functional assay
[3] = biological target: T1, human EGFR (epidermal growth factor …); assay: flow cytometry on MDA-MB468 cells
[4] = biological target: T1, human EGFR (epidermal growth factor …); assay: flow cytometry on MDA-MB468 cells, apparent Kd from non-linear regression of geo mean fluorescence against [Ab] (M)
[5] = biological target: T1, human EGFR (epidermal growth factor …); assay: flow cytometry on MDA-MB468 or A431 cells; EC50 of the curve taken as apparent Kd

For biotinylated EGF (Invitrogen) (ligand), the EC50 [1] was 1.8 nM.

B1: chimeric ML66-SMCC-DM1 (antibody, V domains shown)
VH: QVQLKESGPGLVQPSQTLSLTCTVSGLSLASNSVSWIRQPPGKGLEWMGVIWNHGGTDYNSVIKSRLSISRDTSKSQVFLKMNSLQTEDTAMYFCVRKGGIYFDYWGQGVMVTVSS
VL: DTVLTQSPALAVSPGERVTISCRASESVSTLMHWYQQKSGQQPKLLIYLASHRESGVPARFSGSGSGTDFTLTIDPMEADDTATYYCQQSRNDPWTFGGGTNLELK
modifications: Maytansinoid DM1 is linked to the antibody through the non-cleavable SMCC linker. The attachment sites and drug load for chML66 are not stated, and the letters cannot carry them.
B1 was tested, and the “EC50 of cytotoxicity on KB cells with 1 µM naked chML66 antibody blocking” value [2] was 30 nM and the “EC50 of cytotoxicity on KB cells without blocking antibody” value [2] was 3 nM.

B2: rat ML66 antibody (antibody, V domains shown)
VH: B1 VH
VL: DTVLTQSPALAVSPGERVTISCRASESVSTLMHWYQQKSGQQPKLLIYLASHRESGVPARFSGSGSGTDFTLTIDPMEADDTATYYCQQSRNDPWTFGGGTNLELKR
notes: Rat monoclonal antibody purified from hybridoma
For B2, the “EC50 (read off the curve)” value [3] was about 2 nM and the Kd [4] was 1.94 nM.

B3: humanized ML66 (huML66) antibody (antibody, human IgG1, kappa, V domains shown)
VH: B1 VH with K5Q, Q13K, Q16E, S61P, V62S, Q86T, T87A, E88A, M111L
VL: B2 VL with A9S, V18A, S39P, D80E, G99Q, N102K
B3 was tested, and the “EC50 (read off the curve)” value [3] was about 1 nM, the Kd [5] was 1.12 nM and the Kd [4] was 1.23 nM.

B4: huML66-SPDB-DM4 conjugate (antibody, human IgG1, kappa, V domains shown)
VH: B1 VH with K5Q, Q13K, Q16E, S61P, V62S, Q86T, T87A, E88A, M111L
VL: B2 VL with A9S, V18A, S39P, D80E, G99Q, N102K
modifications: DM4 linked through SPDB; sites not stated; DM4 linked through SPDB; 3.5-4 DM4 molecules per antibody; sites not stated
Molecule B4 has a Kd [5] of 2.93 nM.

B5: huML66-SMCC-DM1 conjugate (antibody, human IgG1, kappa, V domains shown)
VH: B1 VH with K5Q, Q13K, Q16E, S61P, V62S, Q86T, T87A, E88A, M111L
VL: B2 VL with A9S, V18A, S39P, D80E, G99Q, N102K
modifications: DM1 linked through SMCC; sites not stated; DM1 linked through SMCC; 3.5-4 DM1 molecules per antibody; sites not stated
For B5, the Kd [5] was 2.33 nM.

B6: muEGFR-8-SMCC-DM1 conjugate (antibody, V domains shown)
VH: EVQLQQSGAELVKPGASVKLSCTTSGFNIKDTYIHWVKKRPEQGLEWIGRIDPTNGNNKYDPKFQGKATITADTSSNTAYLQLSSLTSEDTAVYYCTREDGYRYDDWYFDVWGAGTTVTVSS
VL: QIVLTQSPASMSASPGEKVTMTCSASSSVSYMHWYQQKSGTSPKRWIYATSKLASGVPARFSGSGSGTSYSLTISSMEAEDAATYYCQQWSSNPLTFGAGTKLELKR
modifications: DM1 linked through SMCC to the antibody; drug load and sites not stated
notes: Maytansinoid conjugate of the whole murine EGFR-8 antibody; its preparation is not described separately
In the case of B6, the Kd [5] is reported as 4.54 nM, the “EC50 of in vitro cytotoxicity on NCI-H226 cells (WST-8)” value [2] is reported as 0.68 nM and the “EC50 of in vitro cytotoxicity on NCI-H292 cells (WST-8)” value [2] is reported as 0.43 nM. For the same molecule, the “EC50 of in vitro cytotoxicity on NCI-H322M cells (WST-8)” value [2] was 3.07 nM.

B7: murine EGFR-8 antibody (antibody, V domains shown)
VH: B6 VH
VL: B6 VL
notes: Mouse monoclonal antibody purified from hybridoma; also called muEGFR-8
In the case of B7, the Kd [5] is reported as 1.43 nM.
